This note sets out measurements from paper PMC11931385, “Structural and functional analysis of cancer-associated missense variants in the retinoblastoma protein pocket domain” (The Journal of Biological Chemistry, 2025).

Assay in all cases: fluorescence polarisation; 37 °C, after the 25 °C reading ramped over 7 min to 37 °C and 2 min incubation; unlabeled Rb^P against 1.5 nM TMR-E2F1^TD or 7.5 nM TMR-E7^LxCxE; 25 mM Tris pH 8.0, 200 mM NaCl, 1 mM DTT, 0.1% Tween-20; apparent Kd
Holding throughout (conditions): both partners purified

One assay has as its target T1, Rb^P Q444R (human, UniProt P06400 380-788, Q444R).
T1 construct: also called variant 4
T1 sequence (looked up): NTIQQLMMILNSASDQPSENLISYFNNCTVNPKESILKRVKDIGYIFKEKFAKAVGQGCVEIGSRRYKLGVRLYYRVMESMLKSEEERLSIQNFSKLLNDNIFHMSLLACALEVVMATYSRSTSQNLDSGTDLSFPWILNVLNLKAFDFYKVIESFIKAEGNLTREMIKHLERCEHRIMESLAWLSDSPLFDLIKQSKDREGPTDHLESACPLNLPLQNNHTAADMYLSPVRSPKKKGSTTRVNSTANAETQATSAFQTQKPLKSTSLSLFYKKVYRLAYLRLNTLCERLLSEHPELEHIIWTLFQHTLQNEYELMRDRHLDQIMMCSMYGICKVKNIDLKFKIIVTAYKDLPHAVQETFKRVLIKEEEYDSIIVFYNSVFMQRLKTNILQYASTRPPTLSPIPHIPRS

In another assay the target is T2, Rb^P R741S (human, UniProt P06400 380-788, R741S).
T2 construct: also called variant 70
T2 sequence (looked up): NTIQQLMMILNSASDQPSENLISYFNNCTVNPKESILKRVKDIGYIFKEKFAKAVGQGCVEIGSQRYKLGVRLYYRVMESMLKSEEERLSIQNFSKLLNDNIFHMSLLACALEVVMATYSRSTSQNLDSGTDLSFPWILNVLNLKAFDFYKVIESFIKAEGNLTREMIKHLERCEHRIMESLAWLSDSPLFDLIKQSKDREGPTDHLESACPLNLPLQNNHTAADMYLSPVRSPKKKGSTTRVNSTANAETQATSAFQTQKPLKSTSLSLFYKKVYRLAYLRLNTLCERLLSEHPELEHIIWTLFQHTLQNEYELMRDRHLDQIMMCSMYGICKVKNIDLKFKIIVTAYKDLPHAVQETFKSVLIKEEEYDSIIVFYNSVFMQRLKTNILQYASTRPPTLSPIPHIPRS

Another assay concerns the target T3, Rb^P E440K (human, UniProt P06400 380-788, E440K).
T3 construct: also called variant 1
T3 sequence (looked up): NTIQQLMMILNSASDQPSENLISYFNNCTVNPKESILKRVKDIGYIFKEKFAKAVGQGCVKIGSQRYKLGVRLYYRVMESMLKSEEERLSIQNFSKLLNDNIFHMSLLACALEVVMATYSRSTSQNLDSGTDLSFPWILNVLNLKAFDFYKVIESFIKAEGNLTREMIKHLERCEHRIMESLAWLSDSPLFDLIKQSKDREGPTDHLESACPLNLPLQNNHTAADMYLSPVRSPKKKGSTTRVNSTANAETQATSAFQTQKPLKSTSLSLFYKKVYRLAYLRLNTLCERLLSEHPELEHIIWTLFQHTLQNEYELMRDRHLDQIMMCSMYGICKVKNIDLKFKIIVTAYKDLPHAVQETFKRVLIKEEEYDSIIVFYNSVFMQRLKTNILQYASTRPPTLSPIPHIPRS

The target in a further assay is T4, Rb^P R621H (human, UniProt P06400 380-788, R621H).
T4 construct: also called variant 42
T4 sequence (looked up): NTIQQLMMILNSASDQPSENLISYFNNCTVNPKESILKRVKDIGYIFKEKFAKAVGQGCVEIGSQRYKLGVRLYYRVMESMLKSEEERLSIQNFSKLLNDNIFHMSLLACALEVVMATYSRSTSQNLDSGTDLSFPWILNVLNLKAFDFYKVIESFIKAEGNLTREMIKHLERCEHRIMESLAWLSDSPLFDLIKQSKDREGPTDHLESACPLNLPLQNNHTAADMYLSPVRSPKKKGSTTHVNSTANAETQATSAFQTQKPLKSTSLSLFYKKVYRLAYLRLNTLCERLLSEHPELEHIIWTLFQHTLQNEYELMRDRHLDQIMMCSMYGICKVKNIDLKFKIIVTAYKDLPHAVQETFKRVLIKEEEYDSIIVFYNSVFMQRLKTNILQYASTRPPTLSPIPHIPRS

The target in another assay is T5, Rb^P L572I (human, UniProt P06400 380-788, L572I).
T5 construct: also called variant 31
T5 sequence (looked up): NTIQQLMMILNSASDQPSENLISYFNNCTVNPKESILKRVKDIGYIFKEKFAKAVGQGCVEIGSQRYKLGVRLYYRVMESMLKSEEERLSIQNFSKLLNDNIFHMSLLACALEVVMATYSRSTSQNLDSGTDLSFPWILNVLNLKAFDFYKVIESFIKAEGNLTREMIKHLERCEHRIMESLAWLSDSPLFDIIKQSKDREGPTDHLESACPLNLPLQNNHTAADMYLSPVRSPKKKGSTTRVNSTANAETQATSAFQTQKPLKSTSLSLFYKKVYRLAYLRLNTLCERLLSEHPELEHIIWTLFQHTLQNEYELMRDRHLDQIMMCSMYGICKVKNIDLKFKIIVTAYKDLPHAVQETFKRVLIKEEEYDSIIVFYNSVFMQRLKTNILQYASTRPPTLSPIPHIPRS

No end group written: not given here. TMR = tetramethyl rhodamine dye

B1: TMR-E2F1^TD, peptide of the E2F1 transactivation domain (peptide)
peptide: {TMR}-GEGIRDLFDCDFGDLTPLD
notes: also called E2F^TD; source: synthetic peptide, bought: GenScript
Turning to B1, the Kd amounted to 25 nM in the assay with Rb^P Q444R; 84 nM with Rb^P R741S; 27 nM with Rb^P E440K; 48 nM with Rb^P R621H; 87 nM with Rb^P L572I.

B2: TMR-E7^LxCxE, LxCxE peptide of the E7 oncoprotein from HPV (peptide)
peptide: DLYCYEQLN
modifications: also: TMR label, position not given here
notes: source: synthetic peptide, bought: GenScript
For the molecule B2, the Kd is 17 nM with Rb^P Q444R; 46 nM with Rb^P R741S; 13 nM with Rb^P E440K; 18 nM in the assay with Rb^P R621H; 15 nM with Rb^P L572I.
